Test results as given in patent US20190112367A1 (IMMUNOQURE, published 2019).

T1: IL-32alpha (ImmunoTools) (human, UniProt P24001-4 1-131, limits assumed)
T1 construct: Bought from ImmunoTools; also called IL-32α
T1 sequence (looked up): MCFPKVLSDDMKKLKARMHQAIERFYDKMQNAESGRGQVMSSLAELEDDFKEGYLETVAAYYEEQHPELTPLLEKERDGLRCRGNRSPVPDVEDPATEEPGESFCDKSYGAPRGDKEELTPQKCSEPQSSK


Experiments:
IL-32alpha (ImmunoTools) [1] = target: T1, IL-32alpha (ImmunoTools); experiment: ELISA, antigen coated on plate
Method: (§1) EC50 binding of exemplary anti-IL-32 antibodies of the present invention to IL-32γ (R&D) or IL-32α (ImmunoTools), was determined by ELISA. Serial dilutions of MABs (from 100,000 ng/ml down to 1.69 ng/ml) were incubated for 2 hours with antigen-coated plates (coating overnight at 1 μg/ml in PBS, followed by wash out and blocking with 2% BSA in PBS). The plates were subsequently washed and binding of MABs was detected with anti-human HRP-conjugated Fc-gamma-specific secondary antibody (Jackson ImmunoResearch, Europe Ltd., Cambridgeshire, UK). Concentrations of MAB resulting in half of maximal binding to respective antigens (EC50, ng/ml) were calculated using Prism 4 GraphPad software on sigmoidal dose-response curves (variable slope, 4 parameters) obtained by plotting the log of the concentration versus OD 450 nm measurements; for the results see FIG. 3 and Table 4 below.

IL-32alpha (ImmunoTools) [2] = target: T1, IL-32alpha (ImmunoTools); experiment: ELISA, antigen coated at 1 µg/ml, serial dilutions of MAB
Method: as §1

| EC50 (IL-32alpha (ImmunoTools) [2]) [µg/mL] | Binder | binding result (IL-32alpha (ImmunoTools) [1]) |
| --- | --- | --- |
|  | anti-IL-32 antibody 14B3 (IgG1, lambda) (antibody, also called MAB 14B3) heavy: not shown light: SYELTQPPSVSVSPGQTARITCSGDALPETYVYWYQQKSGQAPVKLIYEDSERPSGIPERFSGSSSGTLATLTISGAHVEDEADYYCYSTDSSGIGVFGGGTKLTVLSQPKAAPSVTLFPPSSEELQANKATLVCLISDFYPGAVTVAWKADSSPVKAGVETTTPSKQSNNKYAASSYLSLTPEQWKSHKSYSCQVTHEGSTVEKTVAPTECS | no binding (tested: 100 ug/ml (highest concentration tested)) |
|  | anti-IL-32 antibody 19A1 (IgG1, lambda) (antibody, also called MAB 19A1) heavy: not shown light: SYELTQPPSVSVSPGQTARITCSGDALPETYVYWYQQKSGQAPVKLIYEDSERPSGIPERFSGSSSGTLATLTISGAHVEDEADYYCYSTDSSGIGVFGGGTKLTVLSQPKAAPSVTLFPPSSEELQANKATLVCLISDFYPGAVTVAWKADSSPVKAGVETTTPSKQSNNKYAASSYLSLTPEQWKSHKSYSCQVTHEGSTVEKTVAPTECS | no binding (tested: 100 ug/ml (highest concentration tested)) |
|  | anti-IL-32 antibody 26A6 (IgG1, lambda) (antibody, V domains shown, IgG1, lambda; also called MAB 26A6) VH: QVQLVESGGGVVQPGRSLRLSCVASGLTFRTYGMHWVRQAPGNGLEWVAIIWHDGNKKYFADSVKGRFTISRDNSKNSLYLQMNSLRVEDTAVYYCAREMNGIDVWGQGTTVTVSS VL: SYELTQPPSVSVSPGQTARITCSGDALPETYVYWYQQKSGQAPVKLIYEDSERPSGIPERFSGSSSGTLATLTISGAHVEDEADYYCYSTDSSGIGVFGGGTKVTVLS | no binding (tested: 100 ug/ml (highest concentration tested)) |
| > 30 | anti-IL-32 antibody 2C2 (IgG3, lambda) (antibody, V domains shown, Human patient-derived antibody, recombinantly expressed; the chains are put together from these; also called MAB 2C2; exemplary anti-IL-32 2C2 antibody) VH: QLRVQESGPGLLKPAETLSLTCSVSSGSVSNSRYYWAWIRQSPGKGLEWIGSMYYRGRSYYNPSLKSRLTISIDTSKNQFSLKLTSLTAADTAVYYCAAAVYHDLDYWGQGTLVTVSS VL: QSVLTQPPSVSAAPGQKVTISCSGSGSSIGNNYVSWYQQLPGAAPKLLIYDNTKRPSGIPDRFSGSKSGTSATLAITGLQPGDAADYYCGTWDSSFSVFWVFGGGTKLTVLS |  |
